Source: article PMC9881131, “ZNF212 promotes genomic integrity through direct interaction with TRAIP” (Nucleic Acids Research, 2023)

Biological target: T1, recombinant HA-NEIL3 (human, UniProt Q8TAT5 1-605)
T1 construct: NEIL3, human (hNEIL3), subcloned into a pET19b-derived plasmid; The methods tell 3x FLAG (N-terminus) and 10x His (C-terminus); the results call the purified protein HA-NEIL3; Which tags stood on the protein in the assay is not clear; also called hNEIL3; source: E. coli BL21 (DE3), purified (Ni-NTA, Q column, gel filtration)
T1 sequence (looked up): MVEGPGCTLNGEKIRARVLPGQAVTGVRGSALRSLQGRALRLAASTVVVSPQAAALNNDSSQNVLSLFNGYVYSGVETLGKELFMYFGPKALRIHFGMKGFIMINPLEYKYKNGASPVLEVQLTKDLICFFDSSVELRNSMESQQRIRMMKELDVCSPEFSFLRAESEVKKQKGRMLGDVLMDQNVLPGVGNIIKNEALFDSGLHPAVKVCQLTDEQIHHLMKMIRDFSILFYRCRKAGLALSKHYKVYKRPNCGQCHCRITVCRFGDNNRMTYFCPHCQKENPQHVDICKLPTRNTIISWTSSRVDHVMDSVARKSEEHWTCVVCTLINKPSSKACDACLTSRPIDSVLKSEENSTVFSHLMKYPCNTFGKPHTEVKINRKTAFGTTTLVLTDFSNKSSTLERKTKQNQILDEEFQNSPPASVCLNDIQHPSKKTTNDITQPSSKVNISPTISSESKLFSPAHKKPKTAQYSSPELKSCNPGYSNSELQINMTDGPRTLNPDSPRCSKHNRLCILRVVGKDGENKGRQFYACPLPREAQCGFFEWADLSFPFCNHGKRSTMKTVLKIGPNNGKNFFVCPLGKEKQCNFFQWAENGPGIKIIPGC
Assay: co-IP; purified recombinant Flag-ZNF212 (or ZNF212-C) and HA-NEIL3; immunoprecipitation with increasing amounts of HA-NEIL3
Details: both partners purified

B1: recombinant Flag-ZNF212 (natural protein)
chain: not shown
notes: ZNF212, human, 3X-Flag tagged coding region cloned in pCold TF DNA; The host strain (E. coli BL21 (DE3)) is stated for hNEIL3 only; the later purification steps are told for hNEIL3 only; also called hZNF212; source: pCold TF DNA vector, cells grown in LB broth at 15°C, purified (Ni-NTA)
- binding result: binds
